Experimental findings from article PMC7307649 (Biochemistry, 2020) are described below.

Where only a bound is given, the exact number is not on record here.

In test [1] the target is T1, ACKR4 C-terminally fused to SmBiT (UniProt Q9NPB9).
T1 sequence: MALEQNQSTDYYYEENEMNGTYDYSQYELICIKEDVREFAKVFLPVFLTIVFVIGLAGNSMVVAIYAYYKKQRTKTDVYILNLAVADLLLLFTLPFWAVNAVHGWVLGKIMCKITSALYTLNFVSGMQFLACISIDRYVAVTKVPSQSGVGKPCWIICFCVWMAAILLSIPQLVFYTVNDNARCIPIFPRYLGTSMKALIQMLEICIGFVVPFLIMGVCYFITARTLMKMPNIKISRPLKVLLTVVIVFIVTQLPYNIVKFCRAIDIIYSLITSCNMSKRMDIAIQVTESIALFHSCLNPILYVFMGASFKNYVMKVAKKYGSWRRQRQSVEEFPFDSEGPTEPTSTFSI

Test [2] concerns the target CCR7 C-terminally fused to SmBiT (human) (UniProt P32248).
Test [3] shares this target. The source holds these as a separate data set.
The target is the same in test [4]. The source holds these as a separate data set.
For test [5], the target named is T2, CCR7 C-terminally fused to SmBiT (human, UniProt P32248 25-378).
T2 sequence (looked up): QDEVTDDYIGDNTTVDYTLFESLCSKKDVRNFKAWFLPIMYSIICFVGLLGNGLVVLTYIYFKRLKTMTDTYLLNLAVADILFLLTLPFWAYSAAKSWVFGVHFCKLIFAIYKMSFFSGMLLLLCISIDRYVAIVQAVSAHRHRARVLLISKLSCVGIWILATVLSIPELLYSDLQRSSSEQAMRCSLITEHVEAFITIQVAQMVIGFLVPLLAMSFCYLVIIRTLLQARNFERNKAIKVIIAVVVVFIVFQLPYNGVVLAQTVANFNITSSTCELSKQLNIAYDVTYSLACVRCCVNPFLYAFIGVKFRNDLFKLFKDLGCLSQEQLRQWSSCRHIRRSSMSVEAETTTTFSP
Description: cell-based or functional assay.

Test [6] has as its target T3, ACKR4 C-terminally fused to SmBiT (UniProt Q9NPB9 1-350).
T3 sequence (looked up): T1 sequence
Description: cell-based or functional assay.

The target of test [7] is T4, CCL21WT (full-length human CCL21, residues 1–111) (human), O00585.
T4 chain: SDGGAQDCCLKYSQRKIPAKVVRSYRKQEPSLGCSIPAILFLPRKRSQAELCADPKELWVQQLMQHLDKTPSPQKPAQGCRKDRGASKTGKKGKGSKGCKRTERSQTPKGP
As to the kind of experiment: NMR titration. The following applies: remark: other sources report otherwise.

Test [8] deals with T4, CCL21WT (full-length human CCL21, …). As to the kind of experiment: NMR titration. The following applies: remark: other sources report otherwise.

The molecule “CCL21 1–91 C80A (from UniProt O00585 24-114) (domain or fragment)” came in with a β-arrestin 1 recruitment to ACKR4, EC50 in test [1] of 0.005 µM. In test [2], the cAMP inhibition assay, dose–response from 10 pM to 100 nM, EC50 worked out at 7 nM and the β-arrestin 1 recruitment to CCR7, EC50 amounted to 0.06 µM. The calcium flux in CHEM-1 CCR7+ cells, EC50 in test [3] turned out to be 0.0073 µM.

With “CCL21 1–101 (from UniProt O00585 24-124) (domain or fragment)”, the β-arrestin 1 recruitment to ACKR4, EC50 in test [1] came to 0.03 µM. The same molecule had a β-arrestin 1 recruitment to CCR7, EC50 in test [2] of 0.1 µM. In test [3], the calcium flux in CHEM-1 CCR7+ cells, EC50 came out at 0.0215 µM.

For “CCL21 C80AC99A (from UniProt O00585 24-134) (ligand)”, the calcium mobilization in CHEM-1 CCR7+ cells, EC50 in test [4] is 0.0253 µM.

B1: CCL21trunc (CCL21 residues 1–79) (domain or fragment, human, UniProt O00585 24-102, looked up)
chain: SDGGAQDCCLKYSQRKIPAKVVRSYRKQEPSLGCSIPAILFLPRKRSQAELCADPKELWVQQLMQHLDKTPSPQKPAQG
Take B1: in test [5], the “calcium mobilization in CHEM-1 CCR7+ cells, EC50” value came out at 0.00585 µM and the “β-arrestin 1 recruitment to CCR7 (panel with the truncation variants), EC50” value is roughly 0.06 µM. In addition, the “β-arrestin 1 recruitment to ACKR4 (panel with the truncation variants), EC50” value in test [6] is roughly 0.005 µM.

B2: CCL21WT (full-length human CCL21, residues 1–111) (ligand, UniProt O00585 24-134, looked up)
chain: T4 chain
One may read the Kd as the equilibrium constant for the complex coming apart. Turning to B2, in test [5], the “calcium mobilization in CHEM-1 CCR7+ cells, EC50” value was found to be 0.0334 µM and the “β-arrestin 1 recruitment to CCR7 (panel with the truncation variants), EC50” value is roughly 0.1 µM. Further, in test [6], the “β-arrestin 1 recruitment to ACKR4 (panel with the truncation variants), EC50” value is roughly 0.03 µM. The molecule further came in with a Kd in test [7] of 2000 to 10000 µM. This molecule also registered a Kd in test [8] greater than 1000 µM.
